Data reported in patent US8865648B2, “Monomeric and dimeric forms of adiponectin receptor fragments and methods of use” (Siemens Healthcare Diagnostics Inc., priority 2009, dated 2014).
Bridge positions count the residues as written; N and C are the ends. Ends that are not written are not given here. I, II: the chains in the order shown.

Tests used:
ADAM-17 = ADAM-17 (Homo sapiens, UniProt P78536); assay: Inhibition of enzymes: ADAM-17 inhibition; assay type: biochemical; conditions: ADAM-17 at level of 400 ng/ml
Description: (§1) Inhibition of insulin degradation enzyme (IDE) is a biological function of CTF. The inhibition reduces insulin degradation in the liver and other tissues and thereby increases insulin levels in the blood. The enzymes for cleavage of the dimers are also potential therapeutic targets. Each of the peptides synthesized in Example 1 was tested for their effect on cleavage and target enzymes (ADAM-17 and IDE at level of 400 ng/ml).

[1] = molecular target: insulin degradation enzyme (IDE) (Homo sapiens, UniProt P14735); assay: Inhibition of enzymes: insulin degradation enzyme (IDE) inhibition; assay type: biochemical; conditions: for IDE Inhibition (90% inhibition at): IDE at level of 400 ng/ml, peptide level giving 90% inhibition
Description: as §1

[2] = when administered to patients; cited from earlier work

ADAM-17, sequence (P78536 215-824): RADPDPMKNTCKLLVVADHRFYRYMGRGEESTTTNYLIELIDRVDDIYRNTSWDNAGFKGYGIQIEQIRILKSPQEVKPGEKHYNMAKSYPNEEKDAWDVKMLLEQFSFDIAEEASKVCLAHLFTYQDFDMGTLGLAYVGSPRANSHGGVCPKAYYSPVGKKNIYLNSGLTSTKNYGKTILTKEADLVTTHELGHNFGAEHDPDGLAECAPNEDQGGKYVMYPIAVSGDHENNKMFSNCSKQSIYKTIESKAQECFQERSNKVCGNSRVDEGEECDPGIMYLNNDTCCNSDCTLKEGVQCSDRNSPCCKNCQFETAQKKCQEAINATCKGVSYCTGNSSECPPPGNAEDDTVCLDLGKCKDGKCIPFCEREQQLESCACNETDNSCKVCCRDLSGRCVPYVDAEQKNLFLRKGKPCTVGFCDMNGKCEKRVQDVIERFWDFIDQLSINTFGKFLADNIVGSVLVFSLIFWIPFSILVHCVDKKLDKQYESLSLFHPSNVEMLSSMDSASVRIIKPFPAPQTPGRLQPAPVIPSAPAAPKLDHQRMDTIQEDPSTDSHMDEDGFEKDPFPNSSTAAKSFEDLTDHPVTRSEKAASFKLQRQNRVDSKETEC

Row | Molecule | ADAM-17 Inhibition (observed) (ADAM-17) | IDE Inhibition (90% inhibition at) [1] | insulin-sensitizing effect [2] | activity of heterodimer compared with corresponding homodimers ([1]; comparison drawn from the data in TABLE 2)
1 | GGCSEEDAL [R2 CTF9] | Negative | Negative | – | –
2 | GGCTDDTLL [R1 CTF9] | Negative | negative | – | –
3 | HFHGVSNLQEFRFMIGGGCSEEDAL [R2 CTF25] | Negative | – | – | –
4 | HFYGVSNLQEFRYGLEGGCTDDTLL [R1 CTF25] | Negative | – | – | –
5 | HVLVVAAAFVHFYGVSNLQEFRYGLEGGCT [R1 CTF30] | Negative | Negative | – | –
6 | LQEFRYGLEGGCTDDTLL [R1 CTF17] | Negative | negative | – | –
7 | R1 CTF25 R2 CTF25: SEQ ID NO:5 linked via a disulfide bond to SEQ ID NO:6 (chain 1 HFYGVSNLQEFRYGLEGGCTDDTLL; chain 2 HFHGVSNLQEFRFMIGGGCSEEDAL; disulfide I:19-II:19 (inferred)) | Negative | – | – | –
8 | VVAAAFVHFYGVSNLQEFRYGLEGGCTDDTLL [R1 CTF32, C-terminal fragment of ADIPOR1, 32 amino acids] | Positive | – | acted as an insulin-sensitizing agent | –
9 | VVAGAFVHFHGVSNLQEFRFMIGGGCSEEDAL [R2 CTF32, C-terminal fragment of ADIPOR2, 32 amino acids] | Positive | – | – | –
10 | R1 CTF32 R2 CTF32: SEQ ID NO:1 linked via a disulfide bond to SEQ ID NO:2 (disulfide I:26-II:26 (inferred)) chain 1: VVAAAFVHFYGVSNLQEFRYGLEGGCTDDTLL chain 2: VVAGAFVHFHGVSNLQEFRFMIGGGCSEEDAL | Positive | – | – | more active than the corresponding homodimers
11 | R1 CTF32 R1 CTF32: SEQ ID NO:1 linked via a disulfide bond to SEQ ID NO:1 (disulfide I:26-II:26 (inferred)) chain 1: VVAAAFVHFYGVSNLQEFRYGLEGGCTDDTLL chain 2: VVAAAFVHFYGVSNLQEFRYGLEGGCTDDTLL | Positive | – | – | –
12 | R2 CTF32 R2 CTF32: SEQ ID NO:2 linked via a disulfide bond to SEQ ID NO:2 (disulfide I:26-II:26 (inferred)) chain 1: VVAGAFVHFHGVSNLQEFRFMIGGGCSEEDAL chain 2: VVAGAFVHFHGVSNLQEFRFMIGGGCSEEDAL | Positive | – | – | –
